Laboratory results as given in the supplement of paper PMC10567573.

B1: TMEM40 (parent)
chain: YGETDFHKQDGKAGLFSQEQYERN
B2: SPSB1 (parent)
chain: DMRDPTYRPLKQELQGLDYCKPTR

Variants of: B1
Assay: protein stability index of a GFP-peptide fusion (GPS, HEK-293T) (PSI 1-6); higher = more stable
Conditions: c terminus: a fixed tail appended
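Further: lentivirally expressed fusions sorted by FACS into six bins by GFP to DsRed ratio, PSI derived from sequencing read proportions per bin multiplied by bin number.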

Protein stability index of substitutions, site by site:
E22: I 3.29 | D 4.03 | Q 3.8 | L 3.61 | N 3.85 | C 3.61 | M 3.64 | H 3.34 | F 3.19 | R 3.71 | G 3.83 | A 3.91 | K 3.67 | V 3.76 | P 3.48 | Y 3.23 | T 4.01 | W 2.74
Y21: L 4.07 | K 4.54 | M 3.92 | F 4.25 | W 4.09 | E 4.35 | V 4.38 | I 4.65 | A 4.04 | T 5.02 | H 4.73 | P 4.32 | C 3.95 | S 4.63 | N 4.47 | Q 4.44 | D 4.95 | G 4.8 | R 5.25
E19: Y 3.15
N24: S 4.22 | E 4.54 | D 4.4 | M 3.89 | I 3.54 | W 3.99 | Q 4.09 | T 3.89 | Y 3.85 | A 3.63 | V 3.67 | F 3.8 | G 4.12 | K 4.6 | P 3.25 | H 3.88 | L 4.16 | C 3.98
R23: F 4.04 | T 4.62 | E 4.7 | V 3.67 | G 4.58 | L 4 | Q 4.3 | A 4.69 | S 4.37 | N 4.16 | M 4.17 | P 4.21 | C 4.32 | Y 4.02 | D 4.9 | W 4.13 | K 4.37 | I 4.11 | H 4.3
Q20: K 3.79 | P 3.55 | T 4.15 | M 3.92 | E 4.45 | C 3.5 | H 4.01 | L 3.42 | V 3.66 | F 3.41 | N 4.12 | S 4.3 | Y 3.71 | A 4.32 | I 3.85 | W 3 | D 4.71 | R 3.92 | G 3.48

Variants of: B2
Assay: as above
Conditions: c terminus: a fixed tail appended

Protein stability index, by site and new letter:
L14: F 3.43 | D 3.83 | E 2.43 | T 4.28 | H 4.03 | Y 3.49 | R 3.42 | S 4.24
K21: F 1.6 | M 2.39 | H 2.46 | C 2.44 | A 2.9 | P 3.95 | Q 2.64 | N 1.78 | R 3.5
P5: R 2.71 | Y 2.93 | W 2.76 | D 3.1 | N 2.93 | L 3.53 | K 3.28
L17: H 4.39 | W 4.02 | Y 3.7 | S 4.18 | P 3.96 | V 4 | A 3.82 | E 4.37 | K 3.96 | F 3.08 | N 4.33 | G 3.51 | D 4.65 | R 3.8
T23: D 2.87 | F 2.09 | V 3.29 | W 1.76
P9: V 3.19 | D 3.28 | A 2.69 | I 3.32 | G 3.51 | L 2.58 | W 2.99 | Q 2.72 | T 2.64 | N 3.35 | C 2.52 | S 3.35 | E 3.67
R3: H 3.08 | T 3.42 | Q 3.45 | K 3.2 | W 3.14 | A 3.16 | E 3.84 | F 2.92 | M 2.99
E13: M 2.48 | Y 2.41 | A 3.09 | C 2.91 | Q 2.98 | L 2.42 | W 2.44 | K 2.83 | S 3.4 | D 3.68 | R 2.98 | H 3.07
R8: S 2.68 | T 3.08 | P 3.17 | K 3.1 | M 3.5 | W 2.99 | E 3.55 | L 3.23 | D 3.95
Y7: H 2.79 | I 2.54 | K 3.31 | Q 4.24 | W 3.1 | R 2.51 | D 3.61 | N 3.34 | C 3.14 | A 2.08
K11: G 3.17 | L 3.24 | P 3.3 | F 3.24 | Q 3.62 | Y 4.04
D1: N 3.12 | A 2.45 | C 3.94 | T 3.62 | G 2.65 | I 2.57 | S 3.02 | E 3.53 | F 3 | P 3.82
Q15: C 2.57 | R 3.54 | Y 3.4 | W 2.53 | T 3.55 | N 3.52 | A 3.32 | P 2.67 | M 3.33 | K 3.59 | D 2.6 | I 3.05 | E 3.87
C20: L 2.98 | R 4.42 | P 3.94 | F 3.31 | A 3.34 | S 4.11 | N 4.05 | G 4.3 | E 4.41 | W 2.15
P22: R 4.4 | E 4.79 | S 3.68 | W 2.84 | H 4.15 | M 3.07 | G 4.1 | L 3.18 | Q 4.26
G16: K 3.34 | L 3.45 | H 3.1 | T 3.36 | Q 3.94 | N 3.24 | P 3.06 | S 3.32 | A 3.73
D18: E 2.76 | I 2.89 | C 3.08 | W 2.1 | V 3.58 | Q 3.83 | L 2.95 | A 3.81 | F 2.67 | R 3.97 | K 3.53
D4: N 2.74 | M 2.73 | A 3.54 | P 2.72 | V 2.81 | L 2.77 | I 3.13 | G 2.97 | C 2.96 | E 3.24 | T 2.8 | K 3.13
L10: G 3.49 | A 3.54 | E 4.03 | V 3.14 | H 3.11 | S 3.56 | D 3.76 | K 3.22 | P 3.37 | I 3.67 | F 3.56 | T 3.74
T6: A 3.33 | C 2.91 | F 3.24 | H 2.9 | W 4.09 | G 3.93 | S 3.59 | R 3.62 | L 2.71 | V 3.31 | Q 3.55 | D 2.72 | K 3.47
Y19: N 4.92 | E 5.15 | P 4.56 | Q 4.48 | M 4 | S 4.35 | F 3.18 | T 4.32 | G 4.73 | D 4.37 | W 3.04
Q12: C 2.74 | P 3.04 | L 3.84 | E 2.87 | G 2.48 | I 2.35 | S 3.25 | K 2.94 | A 3.12 | T 3.43
R24: S 3.68 | D 4.59 | T 3.27 | C 1.93 | H 2.98 | Y 2.21 | V 1.92 | G 3.85
M2: H 3.64 | D 3.86 | Q 3.26 | E 3.51 | A 3.22 | W 2.57 | F 3.42 | G 3.78 | C 3.01 | V 3.02 | Y 2.72
